Assay in all cases: SEC-MALS
On the technique in general: Size exclusion chromatography separates by hydrodynamic size, large species first.

The target of series [1] is Trx-EAT-17F (C. elegans) (UniProt S6F527).
Series [2] deals with MBP-BICD-1 CTF (C. elegans).
Series [3] deals with the molecule itself.

Experimental findings from publication PMC11544243 (Nature Communications, 2024) are described below.

A word on the stoichiometry N: it is a count of units in the complex or per binding partner.

Turning to MBP-BICD-1 CTF (domain or fragment), the stoichiometry N (BICD-1 CTF per EAT-17F (printed as 2:2)) in series [1] turned out to be 1. Moreover, the stoichiometry N in series [2] came out at 2.

B1: Trx-EAT-17F (natural protein, C. elegans, UniProt S6F527-6 1-396, looked up)
chain: MNSDVHRKLEGAYETIRELSSARRDNIMDTGTQVDDTSMIEHIHSLQQELIEAHTRQADSENTLRDAKLRVSELEMANKRLLENEPSEDVAGLQEELISVKMREAESSLALKEMRQRLAELEQHWAKYVHVRAFDPSSASIEKESTSEAHSTQQQPSPPLTSARARLAKITASLIGGSTEETDNCISVRELEDQLMGVRIKEADTLAELKEMRQKVMELETQNHVCTNQLKRQDEEMKRVREDSEVLVKKRKELEDQLKDEKEKLDNKESEFNEGRINDRLKYSEAMQTIQDLQSSISQLELKKAEKWTQNQLRGSSVCDLDEESNSHGSICSNVDHLSLASDEMNALLADMTVRIPTLDDLAEEGSATETDELRPKELNDGNDTTDSGVQLSDSH
In the case of B1, the “stoichiometry N” value in series [3] came out at 2.
